target: SARS-CoV-2 spike receptor-binding domain, ancestral (amino acids 331-529), biotinylated (SARS-CoV-2, ancestral (Wuhan), UniProt P0DTC2, biotin (RBD expression vector co-expressed with BirA-Flag, 100 μM biotin added)); test: BLI; settings: both partners purified

Binder	Kd [pM]	koff [s⁻¹]	kon [M⁻¹ s⁻¹]
NIV-10 Fab (Fab, V domains shown) VH: EVQLVESGGGLVQPGGSLRLSCAASGFTFYSYWMTWVRQAPGKGLEWVANIKHDESESHYVDSVRGRFTISRDNAKNSVYLQMKGLRAEDTAVYYCARDGGYNILTAYYHAPSYWGQGTLVTVSS VL: QSALTQPASVSGSPGQSITISCTGTSSDVGGYNFVSWYRQYPGKAPQLMIYDVSRRPSGDSDRFSGSKSGNTASLTISGLQAEDEAEYHCSSYTGRSPYVVFGGGTKVTVL	5.42	1.24e-06	223000
NIV-8 Fab (Fab, V domains shown) VH: EVQLVESGGGVVQPGRSLRLSCAASGFKFSKFAMHWVRQAPGKGPEWVAVISYDGNQYHSADSVKGRFTISRDNSFNTLYLQMNSLGPEDTAVYYCARDGPDTSGYYANIYFDFWGQGTLVTVSS VL: QSVLTQPPSVSGAPGQRVTISCTGSSSNIGAGYDVHWYQQLPGRAPKLLIFDNNNRPSGVPDRFSGSKSGTSASLAITGLQTEDEAYYYCQSYDNSLILAVFGGGTKVTVL	10.9	1.15e-06	106000
NIV-13 Fab (Fab, V domains shown) VH: EVQLLESGGGLVQPGGSLRLSCAASGFTFSRYALSWVRQAPGKGLEWVSAISGAAITTYYADSVKGRFTISRDDSRNTLFMQMDSLRAEDTAVYYCAKGDYYDSSGYLAEYFPHWGQGTLVTVSS VL: SYELTQPPSVSVSPGQTARITCFADALPKQHAYWYQQKAGQAPVLVIFKDTERPSGIPKRFSGSRSGATVTLTISGVQAEDEADYYCQSTDISGVLFGGGTKLTVL	7.33	1.19e-06	163000
NIV-11 Fab (Fab, V domains shown) VH: QLVQSGPEVKKPGTSVKVSCKASGFTFYYSAVQWVRQARGQRLEWLGWMAVGSGKANYAQKFQERLTLTRDMSTSTAYMELSSLRSEDTAVYYCAAPNCTGGSCYDGFNLWGQGTVVTVSS VL: EIVLTQSPGTLSLSPGDRAILSCRASQTVNSNYLAWYQQKPGQAPRLLIYGTSSRATGIPDRFSGSGSGTDFTLTISRLEPEDFAVYYCQQYGSSPWLFGQGTKVEIK	20.8	1.12e-06	53600

— publication PMC10349087 (Nature Communications, 2023)
